Drawing on publication PMC11025796, this text covers stoichiometry N for one substance.

Usually stoichiometry N stands for a count of units in the complex or per binding partner.

Assay [1] has as its target HrGH45, endogenous glycosylated GH45 endo-1,4-β-D-glucanase from the red abalone (Haliotis rufescens) (Haliotis rufescens). Put plainly: zymography (SDS-PAGE without reducing agent or heating, in-gel cellulase activity); 12% SDS-PAGE gel with 0.1% (w/v) CMC in the resolving phase, sample not reduced and not heated; Triton X-100 wash, overnight at 37°C in buffer A, Congo red stain; a second gel stained with Coomassie.

For assay [2] the target is unchanged. Description: SEC; calibrated gel filtration on an Agilent Bio SEC-3 HPLC column; 0.1 mg/mL HrGH45 in buffer A (50 mM sodium acetate pH 6.0, 200 mM NaCl, 1 mM EDTA, 0.05% NaN3), 1 mL/min; mass in solution compared with the MALDI-TOF mass of the monomer. On the technique in general: In gel filtration, larger molecules generally elute earlier.

As for “HrGH45, endogenous glycosylated GH45 endo-1,4-β-D-glucanase from the red abalone (Haliotis rufescens) (enzyme)”, the stoichiometry N in assay [1] and in assay [2] was 3 each time.
